One assay concerns pSTAT3 (Y705). Put plainly: EMAP II induced pSTAT3 western blot in RAW 264.7 macrophages. The class given is cell-based, mouse. Particulars: macrophages; EMAP II 24 hours. The method, then: (§1) After appropriate treatments, protein lysates were prepared by using RIPA buffer supplemented with phosphatase and protease inhibitors (Thermo Fischer Scientific). Alpha-tubulin was used as a loading control. For nuclear and cytoplasmic fractionation, NE-PER kit from Thermo Fischer Scientific was used. Western blots were performed according to standard methods and quantified using densitometry using Image Studio Lite software from LI-COR Biosciences.
After appropriate treatments, protein lysates were prepared by using RIPA buffer supplemented with phosphatase and protease inhibitors (Thermo Fisher Scientific). Alpha-tubulin was used as a loading control. For nuclear and cytoplasmic fractionation, NE-PER kit from Thermo Fischer Scientific was used. Western blots were performed according to standard methods and quantified using densitometry using Image Studio Lite software from LI-COR Biosciences.

The test system of another assay is S1P. Briefly: ELISA for S1P quantification in hPASMC. Particulars: SMCs; peaks at 1 hour and 6 hour; normalized against protein. It counts as cell-based, human. The method, then: Equal number of hPASMC cells (1,000,000) were plated and serum starved for overnight. Cells were stimulated for in a series of time points and collected the cells. Cells were pelleted out and washed with PBS. After the lysis protein concentration was measured. S1P levels were measured using S1P ELISA kit (MyBioSource, MBS069092) following manufacturer's instructions. S1P levels were normalized against protein levels.
Background: ELISA stands for enzyme-linked immunosorbent assay.

The test system of a further assay is EGR1. Put plainly: EGR1 protein western blot (whole cell lysates, nuclear fractions) in RAW 264.7 macrophages. It counts as cell-based, mouse. Particulars: macrophages. On the procedure:
(§2) RAW 264.7 (ATCC) mouse macrophages and Human Embryonic Kidney (HEK) 293T cells were cultured in DMEM media with 10% fetal bovine serum […] and glutamine HEPES buffer and beta-mercaptoethanol were added to the growth medium used for RAW 264.7 macrophages. Primary human pulmonary artery smooth muscle cells (hPASMC) purchased from Lonza (Walkersville, Md.) were cultured in complete growth medium containing smooth muscle growth media-2 (SmGM-2) with 10% FBS and growth factors provided as a kit by the supplier (Lonza, (Walkersville, Md.). THP-1 human monocyte cells were cultured in RPMI 1640 with 10% FBS and glutamine Cells were cultured in a humidified atmosphere with 5% CO2 at 370 C. For all studies passages 5-14 were used for RAW 264.7 and passages 5-10 were used for hPASMCs. For treatment studies, subconfluent cells plated in multi-well plates were serum starved and if required, pretreated for with inhibitors before stimulating with 2 μg/mL recombinant EMAP II.
as §1
RAW 264.7 (ATCC) mouse macrophages and HEK-293T (ATCC) cells were cultured in DMEM media with 10% (v/v) fetal bovine serum (FBS) and 2 mM glutamine HEPES buffer and beta-mercaptoethanol were added to the growth medium used for RAW 264.7 macrophages. Primary human pulmonary artery smooth muscle cells (hPASMC) purchased from Lonza (Walkersville, Md.) were cultured in complete growth medium containing smooth muscle growth media-2 (SmGM-2) with 10% FBS and growth factors provided as a kit by the supplier (Lonza, (Walkersville, Md.). THP-1 human monocyte cells were cultured in RPMI 1640 with 10% FBS and glutamine Cells were cultured in a humidified atmosphere with 5% CO2 at 37° C. For all studies passages 5-14 were used for RAW 264.7 and passages 5-10 were used for hPASMCs. For treatment studies, subconfluent cells plated in multi-well plates were serum starved and if required, pretreated with inhibitors before stimulation with 2 μg/mL recombinant EMAP II.
After appropriate treatments, protein lysates were prepared by using RIPA buffer supplemented with phosphatase and protease inhibitors (Thermo Fisher Scientific). Alpha-tubulin was used as a loading control. […] Western blots were performed according to standard methods and quantified using densitometry using Image Studio Lite software from LI-COR Biosciences.
(In western blotting, separated proteins are transferred to a membrane and probed.)

For assay [1], the system named is pERK1/2. Briefly: pERK1/2 western blot time course in RAW 264.7 macrophages. It counts as cell-based, mouse. On the procedure:
as §2, §1
(§3) RAW 264.7 (ATCC) mouse macrophages and HEK-293T (ATCC) cells were cultured in DMEM media with 10% (v/v) fetal bovine serum (FBS) and 2 mM glutamine HEPES buffer and beta-mercaptoethanol were added to the growth medium used for RAW 264.7 macrophages. […]
(§4) After appropriate treatments, protein lysates were prepared by using RIPA buffer supplemented with phosphatase and protease inhibitors (Thermo Fisher Scientific). […] Western blots were performed according to standard methods and quantified using densitometry using Image Studio Lite software from LI-COR Biosciences.

In the next assay the test system is pSphK1. Briefly: pSphK1 immunofluorescence in THP-1 macrophages. The class given is cell-based, human. Particulars: THP1 macrophages; 1 hour EMAP II. The method, then:
Few passages after thawing of THP-1 cell line, cells were seeded in Nunc Lab-Tek™ II 4-well imaging plates and treated with 100 nM Phorbol myristate acetate (InvivoGen, CA) for 3 days allowing THP-1 monocytes to differentiate into macrophages.
Primary hPASMCs cells or human THP-1 macrophages were seeded in Nunc Lab-Tek™ II 4-well imaging plates (Thermo Fisher Scientific) chamber well slides and cultured in growth medium. After the serum starvation cells were stimulated with EMAP II. Treated cells were rinsed with PBS and fixed with 4% paraformaldehyde at room temperature for 15 min and permeabilized with 0.1% Triton X-100 at room temperature for 10 min After washing with PBS three times, the cells were incubated with EGR1, 1amin, or pSphK1 antibody at 40C overnight. The cells were then rinsed with PBS three times and subsequently incubated with respective secondary antibody conjugated with Alex Fluor 647 and 488 or Phalloidin 488 at room temperature for 1 h. The cells were rinsed with PBS three times and coverslips were mounted with SlowFade Gold Antifade Mountant with DAPI (Thermo Fischer Scientific) and the cells were examined under Olympus microscope with 40× for EGR1 expression and with 60× for pSphK1 water immersion. […]

Assay [2] concerns pERK1/2. Put plainly: pERK1/2 western blot time course in hPASMC. It counts as cell-based, human. Particulars: SMCs. On the procedure: as §2, §1, §3, §4
The subject of a further assay is Il6. Put plainly: Il6 transcripts qRT-PCR in hPASMC. Particulars: SMCs, EMAP II time course. It counts as cell-based, human. On the procedure:
RAW 264.7 (ATCC) mouse macrophages and Human Embryonic Kidney (HEK) 293T cells were cultured in DMEM media with 10% fetal bovine serum […] and glutamine HEPES buffer and beta-mercaptoethanol were added to the growth medium used for RAW 264.7 macrophages. […]
Total RNA was extracted with TriZol using standard RNA extraction protocol and reverse transcribed with SuperScript III Reverse Transcriptase (Thermo Fischer Scientific). SphK1, Tnf, Il6, EGR1, Gapdh, Hprt1 transcripts were quantified using PrimePCR SYBR Green assays from BioRad. […]
Total RNA was extracted with TriZol using standard RNA extraction protocol and reverse transcribed with SuperScript III Reverse Transcriptase (Thermo Fisher Scientific). SPHK1, Tnf, Il6, EGR1, Gapdh, Hprt1 transcripts were quantified using PrimePCR SYBR Green assays from BioRad.

Entries after “also recorded” stand apart in the source; their conditions may differ.

B1: EMAP II: 6x-His tagged recombinant EMAP II, cleaved C-terminal peptide of AIMP1 (SEQ ID NO: 2), pro-inflammatory cytokine (protein)
chain: IAGSADSKPIDVSRLDLRIGCIITARKHPDADSLYVEEVDVGEIAPRTVVSGLVNHVPLEQMQNRMVILLCNLKPAKMRGVLSQAMVMCASSPEKIEILAPPNGSVPGDRITFDAFPGEPDKELNPKKKIWEQIQPDLHTNDECVATYKGVPFEVKGKGVCRAQTMSNSGIK
Turning to B1, in the assay on pSTAT3 (Y705), the “STAT3 activation (pSTAT3)” value is reported as “induced STAT3 activation”. Further, the “intracellular S1P levels (ELISA)” value in the assay with S1P was “significant bimodal pattern”. The “EGR1 expression in whole cell lysates” value in the assay on EGR1 (1 to 2 hours following EMAP II) was “significant upregulation”. Moreover, the “upregulation of nuclear expression of EGR1” value in the assay with EGR1 (EMAP II 2 μg/mL, at 2 hours) came to 9 fold. Further, in the assay with pERK1/2 [1], the “earliest time of pERK1/2 activation” value was determined as 5 minutes and the “time of pERK1/2 peak” value is listed as 1 hour. Also, in the assay with pERK1/2 [1] (24-hour time course), the “ERK1/2 phosphorylation (pERK1/2 normalized to ERK1/2)” value is “induced ERK1/2 phosphorylation; also recorded: bi-modal activation; also recorded: bimodal activation”. In addition, the “pSphK1 localization to the plasma membrane” value in the assay with pSphK1 is given as “stimulated translocation; also recorded: elevated levels of pSPHK1”. Besides, in the assay with pERK1/2 [2], the “earliest time pERK1/2 reached significance” value is 3 minutes and the “time of pERK1/2 peak” value amounted to 3 minutes. In addition, the “ERK1/2 phosphorylation (pERK1/2)” value with pERK1/2 [2] (24-hour time course) was “bi-modal ERK1/2 activation; also recorded: induced pERK1/2”. In addition, in the assay with Il6, the Il6 transcription entry is “increased transcription”.
